Assay results as given in article PMC2965215.

Molecular target: T1, ORF904 primase domain Y352A (Sulfolobus islandicus plasmid pRN1, UniProt Q54324 40-370, Y352A)
T1 sequence: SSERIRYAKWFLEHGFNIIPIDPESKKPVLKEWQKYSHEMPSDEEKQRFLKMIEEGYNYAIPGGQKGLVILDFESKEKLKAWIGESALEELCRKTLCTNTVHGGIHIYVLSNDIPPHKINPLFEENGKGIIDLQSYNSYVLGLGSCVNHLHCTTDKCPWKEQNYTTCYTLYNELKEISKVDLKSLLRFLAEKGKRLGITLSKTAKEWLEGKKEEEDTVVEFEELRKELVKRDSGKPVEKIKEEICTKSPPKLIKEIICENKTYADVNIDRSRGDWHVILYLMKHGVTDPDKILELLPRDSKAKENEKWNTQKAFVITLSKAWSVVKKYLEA
Assay: fluorescence anisotropy

B1: templatefluo (ssDNA)
DNA: TCTTCTGTGCACTCTTC
With B1 the Kd was 1030 ± 80 nM.
